From the DeepSol protein solubility set

Experiment: soluble on expression in E. coli; label from the status in PepcDB or PDB records

Row | Sequence | soluble on expression in E. coli
1 | MSLKKVVIIGGGAAGMSAASRVKRLKPEWDVKVFEATEWVSHAPCGIPYVVEGLSTPDKLMYYPPEVFIKKRGIDLHLNAEVIEVDTGYVRVRENGGEKSYEWDYLVFANGASPQVPAIEGVNLKGVFTADLPPDALAIREYMEKYKVENVVIIGGGYIGIEMAEAFAAQGKNVTMIVRGERVLRRSFDKEVTDILEEKLKKHVNLRLQEITMKIEGEERVEKVVTDAGEYKAELVILATGIKPNIELAKQLGVRIGETGAIWTNEKMQTSVENVYAAGDVAETRHVITGRRVWVPLAPAGNKMGYVAGSNIAGKELHFPGVLGTAVTKFMDVEIGKTGLTEMEALKEGYDVRTAFIKASTRPHYYPGGREIWLKGVVDNETNRLLGVQVVGSDILPRIDTAAAMLMAGFTTKDAFFTDLAYAPPFAPVWDPLIVLARVLKEGHHHHHH | soluble
2 | MSLKLITNYQFLTYDGNYFHAEVIQSVLAECERAGIEIDTVLLDRDHQNDMEKFWDQIRSGAAEGVILVGVDMPPMLEVVRALGVPVVMVNGNDPNCQFDSVMPAFRDGSRIATRYLIEQGHRDIVHVTHLYRPLIRRRLDGFREALEEAGLPFSFERNVIDISSGHFSAEQAASVVAERIANGTLNATALFCVSDYTAFGVVQGILRSGKTVPGDYSVASFDDLPLAQLCRPALTSVGVDRRALGRIAVERLLSRLESVEGPTLRIEVGARLTIRDSTRPEGHHHHHH | soluble
3 | MSLKLKEEERMTEMILEYKNQLCKQNKLIQEKKENVLKMIAEVKGKEQESEELTAKIQELKEEYARKRETISTANKANEERLKGLQKSADLYRDYLGLEIRKIHGNKLQFIFTSIDPKNPESPYMFSMSINEAKEYEVYDSSPHLECLAEFQEKVRKTNNFSAFLANIRKAFIAKVHN | not soluble
4 | MSLKLVLHSAKRASAPYRVRIGLNLKGLAFELRPVDLVANAHQGEAYRALNAQALVPTLEVDGRPLTQSLAILEWLDETYPAHPLLPTDAFDRATVRAMAEIIACDIHPLNNLRILRQLTALEIDEPARNAWVARWIQDGFSALEPMIARHGQGYAFGDAPGLVDCLLVPQVFNANRFNVDLSPFPALEAAAAHARAHPAIAAAHPDHHPEEGHHHHHH | soluble
5 | MSLKNENKMIIYQVFTRLFGNNNNHCIYNGDISQNGCGKMADFTAKALGEIKKLGATHIWYTGIIEHASQTDYRRYNIRPDHPAIVKGKAGSPYAIKDYYDVDPDLATDVPGRMKEFENLVSRTHRAGLKVIIDFVPNHVARQYHSDAQPDGTTQLGANDDPNYSFSPYNNFYYIPQSELHGQFDMTGNALEPYHEFPAKATGNNRFDAYPNINDWYETVKLNYGVDYQNGGTCHFSPTPDTWTKMLDILLFWSSKNIDGFRCDMAEMVPVEFWEWAIPQVKQEYPNIIFIAEVYNPHEYKNYLFRGKFDFLYDKVGLYDTLRNVACGYDSATAITRSWQSLGGIEKRMLNFLENHDEQRIASDFFAGDPRKGVPALIVSACMNTNPMMIYFGQEFGEMGMDSEGFSGRDGRTTIFDYWSVDTIRRWRNEGKFDGKMLTEEQKHLYAIYQRVLTLCNEEQAISNGVFFDLMYANENGWRFNEHKQYTFMRKYKNELLFIVVNFDNQPVNVAINVPSHAFDFLQIPQFDSYKAVDLLTDKVEEISLLPYKATEIALGAYTGKILKIKEGHHHHHH | soluble
6 | MSLKNFINFHILISHSPSCLNRDDMNMQKSAVFGGERRVRVSSQSLKRAIRKSDYYRQHLGEASVRTKKLDELIAIINDRLAGRYDTDLLKKTVGLLAGKELSVEVATEGDAVAPWAIEEVAWFCEQVKRMVAQGQDEKALGKLLKNETAAMRQALASGVDIALSGRMATSGLMSELGKVDGALAVAHVLTTHSVDADIDWFTAVDDLQELGSGHLDTQEFSSGVFYRYASLNVKQLQENLGNAPREKALEIGAHLLHMLATIVPSAKQQSFAAHNLADLALVSFSDIPVSLANAFEKPVRSVNGSGFKEPSIAELHNYWQQIHTGYGLSERCGEFILGQSSVPEGITRKSTIEELKTWVMNNGEGEGHHHHHH | soluble
7 | MSLKNIKSNLGDYATLVFDCDGVLLDSNKVKTQAFYEAALPYGEMAAQALADHHVANGGISRYKKFSYFLEHIVAQHAEGPSLEHLLDRYAENVSSGLLSCDIASGIRELRAKTPNTRWLIVSGGDQTELREVFAQRKLAEIFDGGIFGSPDAKEEIIARELRSSNIAPPALFIGDSKYDFKAASESNLDFLFLSDWSEVKNWQQWCNENNIYALGNISSLLETCTHPEEGHHHHHH | soluble
8 | MSLKNLHPIMLAGTGSDVGKSVIAAALCRIFKQDGYRPAPFKAQNMALNSYATPEGLEIGRAQAVQAEAAGVPCHTDMNPLLLKPSSDHTSQVVLNGRPIGNRNAFEYFRKEGREELRQEVNAAFDRLAARYNPIVMEGAGSISEINLRDTDLVNMPMACYADADVILVADIDRGGVFASVYGSVMLQTPEDKKRIKGVIINKFRGDIRLFESGVKMMEDLCGIPVLGIIPYYRNIHIEEEDSVGLDYKRMQAVEGKINIAVVLLRHLSNFTDFNRLERDERVHLYYTNNTEDLAKADIILLPGSKSTLDDLYELRRNGVAQAVLRAHREGVTVMGICGGYQLMGLEIHDPEGVEGEIRQLPGLGLLPVITTMQGEKVTRQVNFHFLENAETCQGYEIHMGETRPVPGEAVVPLNKLEDGGEDGCFVNQKCMGSYIHGILDNQAFIDYLLEPYAEKLECHTVLDYRTYKEEQYDKLAEHVRSHLNLPLLYQIMSGNEGHHHHHH | soluble
9 | MSLKNSMTILDAIRALDDPTRLRIMRLLASMELAVGEVAQVLGQSQPRVSRHIKILCDSGLAERRKEGAWVFLRSSIGEGAESPLASALARLLAVAEHEDTAFGRRCSEDRQHLDAIRSSRESHALEWFARHADEWDELRSLHIADGPVEAALTEMLLALSGDGSLGRLLDVGTGTGRIAELFAPNAAHVVAFDKSPDMLRIARARLQHLPADAVELVQGDFAQLPFAARSFDTVLFHQVLHYAQAPEAVLAGAARVTAPGGRVAIVDFAAHEREDLRQTHAHARLGFSDAQIETMLLDAGFIPHETRALAGHELVVKLWTAVRREDSVTQLEPRQKSSSGKTEGHHHHHH | soluble
10 | MSLKQKLSHPYLAKHISAPKIDEDKLLLFHALFEEADIKNNDRENYIVTAMLVQSALDTHDEVTTARVIKRDENKNRQLTVLAGDYFSGLYYSLLSEMKDIYMIRTLATAIKEINEHKIRLYDRSFKDENDFFESVGIVESALFHRVAEHFNLPRWKKLSSDFFVFKRLMNGNDAFLDVIGSFIQLGKTKEEILEDCFKKAKNSIESLLPLNSPIQNILINRLKTISQDQTYHQKEGHHHHHH | not soluble
11 | MSLKRIVVANDLVGVGKVALSASIPLMASCLLEQVLLPTCLLSSHTGGGQNPVKHTTSSILDVFLTDWDNKRIKFDGIFIGYFTTTRDGQKLLEWLSRKQLPLILDPIMADNGKLYQGFSQKHIEIMIKLTQKAELVLPNISEACLLTQTAYLAKNYDEEDIRQVARKLAKLGPKQVVISGISFEEGSIGFAYYQSDSDQLTFHFGKQFPYHFYGTGDIASAIITAGFYYQLPLTQILDLVVSFLEKVLQNTLTLKRDLILGVAYESHLNYLTEGHHHHHH | not soluble
12 | MSLKRLNCRRKGIRVRILAIDTSNQTLSIAVCENQKILGSYTATVKRNHSLTLMPAIDYLMSQLNLAPTAIDRFVVAEGPGSYTGLRLGVTTAKTLAYTLKKELVGISSLQTLAANCVGQTGLIVPLFDARRKNVYAGAYRFVNGVWQNELPDQHISLRELLEQLKNEPNLFFVGEDVEKFTEEIAQIIPHGEICDVPQWQIPNAAVLAALGSVAEPVENVHGFLPAYLKKVEAEENWLKTHTPNGESYVEKLEGHHHHHH | soluble
13 | MSLKRVIGYIRVSTDNQDLERQRVLIRKYCENKGYSLLRIEEDYAISGTVSNRNGLNSILNITNSVADMVVVSELSRLSRQDDIFETLTQIHTIIRNVDLVILDEPDKVYEAGKTIILSDFLMLAIKAYGAADERKKIVSRMTTGKDSKVQAFPLMLTDSNIPTGFKAVPNPNYIKGATPKMLLVEDEERMQLVRDIFNYVANGLSLGKTAEKLNMLGYRTARNKPFYEQSIRTIINDSIYNGVRYWKGMKLELPVKFISDEIWNLAHKKVQENKNYSGEGHHHHHH | soluble
14 | MSLKSDEVFAKIAKRLESIDPANRQVEHVYKFRITQGGKVVKNWVMDLKNVKLVESDDAAEATLTMEDDIMFAIGTGALPAKEAMAQDKMEVDGQVELIFLLEPFIASLK | soluble
15 | MSLKSKGIKNLLIDLGGVLINLDRERCIENFKKIGFQNIEEKFCTHQLDGIFLQQEKGLITPAEFRDGIREMMGKMVSDKQIDAAWNSFLVDIPTYKLDLLLKLREKYVVYLLSNTNDIHWKWVCKNAFPYRTFKVEDYFEKTYLSYEMKMAKPEPEIFKAVTEDAGIDPKETFFIDDSEINCKVAQELGISTYTPKAGEDWSHLFRKEGHHHHHH | soluble
16 | MSLKSKPVFRLVVAATGLCALPTWADGWPSWSPETAVVPYYFVSDSMGNTLGVAGLAKHVGQANASVLGTALYSDKGSYVTYLSATNYQVGDFWLLGAESYQGKFVDYDYYLGANASNDSTAADRTIATGKESITRFSFRYIVPWGHAAFRGARAALEPTRQIKGFSPDRSGITTIEFQPFHTSREINAIAGQDSDSSGLSLKLDWDNRNDVRNPTQGFRTRLDITYADENWGNDSDWLKYEYSSSGFWNLGGVDDLLDQQVFAFNFYIADTPTWNNCNTQTCQRPPEFDQVSLGGLYRLRSFSSGRFHGKSAINYSAEYRVLPKWQPLDDIPVLNIYDIPWWQWVAFVDMGRVSDESSFSELHSDMQWSAGGAVRFQVEGIVVRAEMAWGSEESLFRVMVNQEGHHHHHH | not soluble
17 | MSLKSLEGSWCLVLGASSGIGRAIALGLAREGVHVAGVHFDTAARAEEVEALVEEIRSLGVEARFFNTNAASKATRAELVPQLAELTGANGGIRILVHSLAFGTLVPFTPREGWDRPISVRQLEMTLDVMAHSLVYWTQDLLAAGLLRSGSKVYAMTSAGTSQHLPSYGAVSAAKSALESHVRQLAAELATSGIAVNALRAGTTVTPALQRIPEHAGYIERAAENNPHGRLTRPDDVADAVALLSRTESSWLTGNTIGIDGGELHEGHHHHHH | soluble
18 | MSLKSNVYYEELAKQNAIKTEFLPPVRGQITDRNGTLLAINDLGFSISIKPYLSIKKSNKGILDKELSELTNLFPDLNASKLAEIYKRNDSYYNQDFIKVVDFIPYDEIISHYSELNLNKTIKIDPVVKRKYPFGKLASHIIGYVGKANLQDVQENEIAKLSNYTGKSGIERYYNDILQGEKGTRVYKVNALNQEVEQLSYTPAMSNDIELTIDIELQSYLTSLFEGNAGAAIIMNVNDGSILAAGSFPEYDLNPFVTGISFKDWDELSNSLDHPFTNKLINGYYPPGSVVKMGVGLSFLNSKNISPSTHYVCNGSIELGGRFFRCWNRSGHGPVDLKHAIKYSCDVYFYNGSLQVGIDQISETLSRIGFGVKTGVDLPSEFVGTLPSKEWKMQRYRQSWFQGDTLNTAIGQGNFLATPMQIARYTAQIAKSGEVIPHFLKSIENNNTTIENQMDENKKEIFTLFEKSQLPYIRDAMYAVANEQGGTSYRYLHNLDVKVAAKTGTAQVVGFSQTDKNRVDEKQFEYYTRSHAWLTSYAPYSKPKYVVTVLLEHGGRNITSGATVAKIYQKMIELGYFKEGHHHHHH | soluble
